Non-standard residues stand in square brackets, D forms with d. No end group written: not given here. Ala(4-thiazolyl) = N[C@@H](Cc1cscn1)C(=O)O; Nle = CCCC[C@H](N)C(=O)O
Assays:
Experiment in all cases: cell-based or functional assay
human glucagon receptor [1] = molecular target: T1, human glucagon receptor (human, UniProt P47871 26-477)
human GLP-1 receptor [2] = molecular target: T2, human GLP-1 receptor (human, UniProt P43220 24-463)
human glucagon receptor [3] = molecular target: T1, human glucagon receptor; remark: listed apart in the source
human GLP-1 receptor [4] = molecular target: T2, human GLP-1 receptor; remark: listed apart in the source

T1 sequence (P47871 26-477): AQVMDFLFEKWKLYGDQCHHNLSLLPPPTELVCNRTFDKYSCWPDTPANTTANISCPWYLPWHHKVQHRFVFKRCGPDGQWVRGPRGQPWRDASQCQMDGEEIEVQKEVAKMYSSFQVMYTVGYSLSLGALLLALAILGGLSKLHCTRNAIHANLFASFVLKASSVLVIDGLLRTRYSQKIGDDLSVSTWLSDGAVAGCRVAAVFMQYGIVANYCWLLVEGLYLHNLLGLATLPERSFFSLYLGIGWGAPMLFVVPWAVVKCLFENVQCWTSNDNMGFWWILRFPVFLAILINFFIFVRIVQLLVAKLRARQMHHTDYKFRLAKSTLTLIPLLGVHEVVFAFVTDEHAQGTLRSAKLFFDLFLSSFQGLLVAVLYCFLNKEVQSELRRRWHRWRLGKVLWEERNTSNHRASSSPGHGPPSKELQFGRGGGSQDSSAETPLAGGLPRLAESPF

Row | Binder | EC50 hGlucagon-R, cAMP formation (human glucagon receptor [1]) [nM] | EC50 hGLP-1R, cAMP formation (human GLP-1 receptor [2]) [nM] | EC50 hGLUC R [pM], cAMP formation (human glucagon receptor [3]) [pM] | EC50 hGLP-1 R [pM], cAMP formation (human GLP-1 receptor [4]) [pM]
1 | [Ala(4-thiazolyl)]SQGTFTSDLSKQLESRRAQEFIEWLLAGGPESGAPPPS-OH (N-terminus assumed; SMILES CC[C@H](C)[C@H](NC(=O)[C@H](Cc1ccccc1)NC(=O)[C@H](CCC(=O)O)NC(=O)[C@H](CCC(N)=O)NC(=O)[C@H](C)NC(=O)[C@H](CCCNC(=N)N)NC(=O)[C@H](CCCNC(=N)N)NC(=O)[C@H](CO)NC(=O)[C@H](CCC(=O)O)NC(=O)[C@H](CC(C)C)NC(=O)[C@H](CCC(N)=O)NC(=O)[C@H](CCCCN)NC(=O)[C@H](CO)NC(=O)[C@H](CC(C)C)NC(=O)[C@H](CC(=O)O)NC(=O)[C@H](CO)NC(=O)[C@@H](NC(=O)[C@H](Cc1ccccc1)NC(=O)[C@@H](NC(=O)CNC(=O)[C@H](CCC(N)=O)NC(=O)[C@H](CO)NC(=O)[C@@H](N)Cc1cscn1)[C@@H](C)O)[C@@H](C)O)C(=O)N[C@@H](CCC(=O)O)C(=O)N[C@@H](Cc1c[nH]c2ccccc12)C(=O)N[C@@H](CC(C)C)C(=O)N[C@@H](CC(C)C)C(=O)N[C@@H](C)C(=O)NCC(=O)NCC(=O)N1CCC[C@H]1C(=O)N[C@@H](CCC(=O)O)C(=O)N[C@@H](CO)C(=O)NCC(=O)N[C@@H](C)C(=O)N1CCC[C@H]1C(=O)N1CCC[C@H]1C(=O)N1CCC[C@H]1C(=O)N[C@@H](CO)C(=O)O) [SEQ ID NO: 4] | 0.0007 | 3.3 | 0.7 | 3300
2 | [Ala(4-thiazolyl)]SQGTFTSDLSKQ[Nle]ESRRAQDFIEWLLATGPESGAPPPS-OH (N-terminus assumed; SMILES CCCC[C@H](NC(=O)[C@H](CCC(N)=O)NC(=O)[C@H](CCCCN)NC(=O)[C@H](CO)NC(=O)[C@H](CC(C)C)NC(=O)[C@H](CC(=O)O)NC(=O)[C@H](CO)NC(=O)[C@@H](NC(=O)[C@H](Cc1ccccc1)NC(=O)[C@@H](NC(=O)CNC(=O)[C@H](CCC(N)=O)NC(=O)[C@H](CO)NC(=O)[C@@H](N)Cc1cscn1)[C@@H](C)O)[C@@H](C)O)C(=O)N[C@@H](CCC(=O)O)C(=O)N[C@@H](CO)C(=O)N[C@@H](CCCNC(=N)N)C(=O)N[C@@H](CCCNC(=N)N)C(=O)N[C@@H](C)C(=O)N[C@@H](CCC(N)=O)C(=O)N[C@@H](CC(=O)O)C(=O)N[C@@H](Cc1ccccc1)C(=O)N[C@H](C(=O)N[C@@H](CCC(=O)O)C(=O)N[C@@H](Cc1c[nH]c2ccccc12)C(=O)N[C@@H](CC(C)C)C(=O)N[C@@H](CC(C)C)C(=O)N[C@@H](C)C(=O)N[C@H](C(=O)NCC(=O)N1CCC[C@H]1C(=O)N[C@@H](CCC(=O)O)C(=O)N[C@@H](CO)C(=O)NCC(=O)N[C@@H](C)C(=O)N1CCC[C@H]1C(=O)N1CCC[C@H]1C(=O)N1CCC[C@H]1C(=O)N[C@@H](CO)C(=O)O)[C@@H](C)O)[C@@H](C)CC) [SEQ ID NO: 3] | 0.0018 | 44.3 | 1.8 | 44300
3 | [Ala(4-thiazolyl)]SQGTFTSDLSKQ[Nle]ESRRAQEFIEWLLATGPESGAPPPS-OH (N-terminus assumed; SMILES CCCC[C@H](NC(=O)[C@H](CCC(N)=O)NC(=O)[C@H](CCCCN)NC(=O)[C@H](CO)NC(=O)[C@H](CC(C)C)NC(=O)[C@H](CC(=O)O)NC(=O)[C@H](CO)NC(=O)[C@@H](NC(=O)[C@H](Cc1ccccc1)NC(=O)[C@@H](NC(=O)CNC(=O)[C@H](CCC(N)=O)NC(=O)[C@H](CO)NC(=O)[C@@H](N)Cc1cscn1)[C@@H](C)O)[C@@H](C)O)C(=O)N[C@@H](CCC(=O)O)C(=O)N[C@@H](CO)C(=O)N[C@@H](CCCNC(=N)N)C(=O)N[C@@H](CCCNC(=N)N)C(=O)N[C@@H](C)C(=O)N[C@@H](CCC(N)=O)C(=O)N[C@@H](CCC(=O)O)C(=O)N[C@@H](Cc1ccccc1)C(=O)N[C@H](C(=O)N[C@@H](CCC(=O)O)C(=O)N[C@@H](Cc1c[nH]c2ccccc12)C(=O)N[C@@H](CC(C)C)C(=O)N[C@@H](CC(C)C)C(=O)N[C@@H](C)C(=O)N[C@H](C(=O)NCC(=O)N1CCC[C@H]1C(=O)N[C@@H](CCC(=O)O)C(=O)N[C@@H](CO)C(=O)NCC(=O)N[C@@H](C)C(=O)N1CCC[C@H]1C(=O)N1CCC[C@H]1C(=O)N1CCC[C@H]1C(=O)N[C@@H](CO)C(=O)O)[C@@H](C)O)[C@@H](C)CC) [SEQ ID NO: 16] | 0.0009 | 19.7 | 0.9 | 19700

— patent publication US20150368311A1 (Sanofi, published 2015)
